Test results as given in publication PMC7660256.

Target: T1, PdhR (Escherichia coli K-12 W3110) (UniProt P0ACL9)
T1 sequence: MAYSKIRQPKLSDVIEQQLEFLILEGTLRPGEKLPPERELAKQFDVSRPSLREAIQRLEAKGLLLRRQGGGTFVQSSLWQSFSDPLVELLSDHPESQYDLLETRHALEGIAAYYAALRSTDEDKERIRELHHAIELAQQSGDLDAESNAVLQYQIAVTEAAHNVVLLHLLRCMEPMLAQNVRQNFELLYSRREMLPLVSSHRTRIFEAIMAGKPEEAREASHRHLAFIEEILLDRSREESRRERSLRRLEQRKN
Test: EMSA
Conditions: Gel shift buffer (composition not given), 37 °C, 30 min; 0.2 pmol probe, 0-10 pmol PdhR; GelRed stain. gSELEX: 10 mM Tris-HCl pH 7.8 (4 °C), 3 mM Mg acetate …

Sequence: CTCTATATCACTCTCACAAATTCGCTCAAATAATAAACAATAAACTCTGTTTTTTGATCTCACCCGGTAAAGTCGCCTATCTTTTCAGCAACAAAACTTGATTAACATCAATTTTGGTATGACCAATGCACCATTCATGTTATTCTCAATAGCGAAGAACATTTTCATTGCTGTAACCTGTTGTTAATTAAGAGCTATGTTAATAACCATTAATTAACAATTGGTTAATAAATTTAAGGGGGTCACG (double strand) [ndh probe]
- binding: binds
